Data taken from patent CN116406375A (UNIV SHANGHAI TECHNOLOGY, dated 2023).

T1: HCoV-229E刺突 (HCoV-229E, UniProt P15423 16-1173)
T1 construct: whole, on cells
T1 sequence: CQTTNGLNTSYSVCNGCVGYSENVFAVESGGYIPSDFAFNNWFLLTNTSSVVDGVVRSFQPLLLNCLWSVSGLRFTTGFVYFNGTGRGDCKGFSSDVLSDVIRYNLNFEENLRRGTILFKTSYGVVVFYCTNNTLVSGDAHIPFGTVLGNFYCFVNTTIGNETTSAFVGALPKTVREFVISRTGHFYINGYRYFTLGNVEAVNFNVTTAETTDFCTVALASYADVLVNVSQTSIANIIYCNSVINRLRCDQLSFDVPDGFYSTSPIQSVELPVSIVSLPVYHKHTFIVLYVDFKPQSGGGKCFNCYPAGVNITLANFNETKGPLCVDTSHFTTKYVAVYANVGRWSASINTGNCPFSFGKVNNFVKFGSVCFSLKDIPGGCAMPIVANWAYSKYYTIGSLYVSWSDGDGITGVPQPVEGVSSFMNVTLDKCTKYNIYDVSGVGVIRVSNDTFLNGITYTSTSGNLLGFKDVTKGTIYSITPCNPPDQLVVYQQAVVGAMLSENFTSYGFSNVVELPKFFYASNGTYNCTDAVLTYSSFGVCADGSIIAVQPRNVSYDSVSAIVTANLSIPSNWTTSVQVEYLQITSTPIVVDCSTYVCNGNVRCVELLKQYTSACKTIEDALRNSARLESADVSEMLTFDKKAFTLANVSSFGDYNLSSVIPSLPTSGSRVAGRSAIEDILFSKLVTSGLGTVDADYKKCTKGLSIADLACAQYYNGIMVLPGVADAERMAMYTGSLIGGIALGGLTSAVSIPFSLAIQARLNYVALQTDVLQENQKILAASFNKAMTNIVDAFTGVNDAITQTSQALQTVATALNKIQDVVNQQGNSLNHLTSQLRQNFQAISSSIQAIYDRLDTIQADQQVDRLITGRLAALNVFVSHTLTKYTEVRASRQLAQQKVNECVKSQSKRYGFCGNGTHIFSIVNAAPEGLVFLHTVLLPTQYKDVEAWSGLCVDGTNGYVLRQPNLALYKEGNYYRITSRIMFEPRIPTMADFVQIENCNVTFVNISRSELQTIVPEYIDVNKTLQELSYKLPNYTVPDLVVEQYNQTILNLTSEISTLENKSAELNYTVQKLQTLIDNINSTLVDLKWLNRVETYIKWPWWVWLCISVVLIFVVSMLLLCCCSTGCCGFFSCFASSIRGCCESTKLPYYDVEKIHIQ

T2: HCoV-HKU1刺突 (HCoV-HKU1, UniProt Q5MQD0 13-1356)
T2 construct: whole, on cells
T2 sequence: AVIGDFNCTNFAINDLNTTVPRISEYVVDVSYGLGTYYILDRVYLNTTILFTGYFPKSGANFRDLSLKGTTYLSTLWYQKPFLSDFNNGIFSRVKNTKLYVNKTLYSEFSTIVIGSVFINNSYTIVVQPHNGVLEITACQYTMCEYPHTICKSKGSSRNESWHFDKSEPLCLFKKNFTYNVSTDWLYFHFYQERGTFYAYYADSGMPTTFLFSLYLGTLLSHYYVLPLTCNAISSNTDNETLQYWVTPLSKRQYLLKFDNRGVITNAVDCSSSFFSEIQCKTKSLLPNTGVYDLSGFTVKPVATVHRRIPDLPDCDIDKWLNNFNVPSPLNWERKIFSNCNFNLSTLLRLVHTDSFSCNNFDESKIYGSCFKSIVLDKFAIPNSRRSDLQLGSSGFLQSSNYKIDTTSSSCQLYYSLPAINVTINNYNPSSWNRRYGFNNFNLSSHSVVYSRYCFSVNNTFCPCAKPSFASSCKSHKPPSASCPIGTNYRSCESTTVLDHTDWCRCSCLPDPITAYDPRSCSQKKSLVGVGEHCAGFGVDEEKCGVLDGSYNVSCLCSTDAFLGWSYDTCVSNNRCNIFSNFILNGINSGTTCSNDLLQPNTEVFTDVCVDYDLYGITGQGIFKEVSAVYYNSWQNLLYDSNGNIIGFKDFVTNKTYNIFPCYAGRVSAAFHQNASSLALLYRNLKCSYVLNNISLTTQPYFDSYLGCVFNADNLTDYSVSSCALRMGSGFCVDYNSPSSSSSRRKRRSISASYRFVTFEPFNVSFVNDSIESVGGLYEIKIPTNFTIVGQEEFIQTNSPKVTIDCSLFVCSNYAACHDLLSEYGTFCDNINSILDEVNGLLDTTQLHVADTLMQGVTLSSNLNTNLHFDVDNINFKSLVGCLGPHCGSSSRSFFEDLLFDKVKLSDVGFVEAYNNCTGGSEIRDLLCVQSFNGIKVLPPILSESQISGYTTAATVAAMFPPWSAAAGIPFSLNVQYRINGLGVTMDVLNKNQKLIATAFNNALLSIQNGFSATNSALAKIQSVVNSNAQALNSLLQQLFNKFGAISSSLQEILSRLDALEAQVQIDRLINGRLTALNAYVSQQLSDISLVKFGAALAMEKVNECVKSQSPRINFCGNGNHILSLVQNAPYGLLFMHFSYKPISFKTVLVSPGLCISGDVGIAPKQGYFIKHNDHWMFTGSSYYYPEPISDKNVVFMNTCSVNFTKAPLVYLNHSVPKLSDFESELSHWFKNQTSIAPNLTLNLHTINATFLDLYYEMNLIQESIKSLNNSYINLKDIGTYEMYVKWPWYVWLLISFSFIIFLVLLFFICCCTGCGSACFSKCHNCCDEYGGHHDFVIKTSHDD

T3: HCoV-NL63刺突 (HCoV-NL63, UniProt Q6Q1S2 19-1356)
T3 construct: whole, on cells
T3 sequence: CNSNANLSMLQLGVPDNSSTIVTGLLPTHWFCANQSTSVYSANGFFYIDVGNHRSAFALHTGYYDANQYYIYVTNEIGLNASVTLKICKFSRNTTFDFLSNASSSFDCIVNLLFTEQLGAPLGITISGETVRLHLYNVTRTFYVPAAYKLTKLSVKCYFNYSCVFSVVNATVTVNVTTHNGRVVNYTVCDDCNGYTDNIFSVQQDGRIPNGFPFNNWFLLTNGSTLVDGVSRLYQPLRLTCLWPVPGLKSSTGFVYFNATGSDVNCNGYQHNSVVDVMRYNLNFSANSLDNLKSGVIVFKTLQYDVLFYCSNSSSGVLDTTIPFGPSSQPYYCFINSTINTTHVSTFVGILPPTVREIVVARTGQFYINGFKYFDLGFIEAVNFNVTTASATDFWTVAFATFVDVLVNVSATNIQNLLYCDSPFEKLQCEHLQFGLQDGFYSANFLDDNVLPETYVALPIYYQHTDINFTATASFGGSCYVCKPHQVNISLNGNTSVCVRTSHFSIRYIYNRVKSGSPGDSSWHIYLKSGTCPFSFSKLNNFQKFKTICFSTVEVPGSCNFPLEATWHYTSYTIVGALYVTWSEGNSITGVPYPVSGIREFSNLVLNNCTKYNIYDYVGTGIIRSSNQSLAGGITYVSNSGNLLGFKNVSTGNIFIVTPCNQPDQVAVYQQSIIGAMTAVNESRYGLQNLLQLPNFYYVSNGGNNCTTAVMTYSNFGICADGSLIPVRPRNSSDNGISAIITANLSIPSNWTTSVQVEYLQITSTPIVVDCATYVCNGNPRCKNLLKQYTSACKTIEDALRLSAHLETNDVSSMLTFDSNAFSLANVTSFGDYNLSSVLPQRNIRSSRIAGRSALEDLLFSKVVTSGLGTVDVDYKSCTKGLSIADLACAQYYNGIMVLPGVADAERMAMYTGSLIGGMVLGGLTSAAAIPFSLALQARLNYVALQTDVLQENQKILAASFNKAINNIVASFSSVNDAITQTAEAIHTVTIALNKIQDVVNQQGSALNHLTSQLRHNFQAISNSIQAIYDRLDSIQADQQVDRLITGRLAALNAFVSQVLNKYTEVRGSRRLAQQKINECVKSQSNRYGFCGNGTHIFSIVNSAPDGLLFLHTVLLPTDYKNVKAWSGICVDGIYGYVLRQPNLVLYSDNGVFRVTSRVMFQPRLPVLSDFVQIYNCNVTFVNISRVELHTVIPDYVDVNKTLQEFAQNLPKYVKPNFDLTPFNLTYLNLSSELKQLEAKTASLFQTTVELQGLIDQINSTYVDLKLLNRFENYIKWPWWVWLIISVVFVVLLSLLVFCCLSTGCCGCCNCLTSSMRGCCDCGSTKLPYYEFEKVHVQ

T4: HCoV-OC43刺突 (HCoV-OC43, UniProt P36334 14-1353)
T4 construct: whole, on cells
T4 sequence: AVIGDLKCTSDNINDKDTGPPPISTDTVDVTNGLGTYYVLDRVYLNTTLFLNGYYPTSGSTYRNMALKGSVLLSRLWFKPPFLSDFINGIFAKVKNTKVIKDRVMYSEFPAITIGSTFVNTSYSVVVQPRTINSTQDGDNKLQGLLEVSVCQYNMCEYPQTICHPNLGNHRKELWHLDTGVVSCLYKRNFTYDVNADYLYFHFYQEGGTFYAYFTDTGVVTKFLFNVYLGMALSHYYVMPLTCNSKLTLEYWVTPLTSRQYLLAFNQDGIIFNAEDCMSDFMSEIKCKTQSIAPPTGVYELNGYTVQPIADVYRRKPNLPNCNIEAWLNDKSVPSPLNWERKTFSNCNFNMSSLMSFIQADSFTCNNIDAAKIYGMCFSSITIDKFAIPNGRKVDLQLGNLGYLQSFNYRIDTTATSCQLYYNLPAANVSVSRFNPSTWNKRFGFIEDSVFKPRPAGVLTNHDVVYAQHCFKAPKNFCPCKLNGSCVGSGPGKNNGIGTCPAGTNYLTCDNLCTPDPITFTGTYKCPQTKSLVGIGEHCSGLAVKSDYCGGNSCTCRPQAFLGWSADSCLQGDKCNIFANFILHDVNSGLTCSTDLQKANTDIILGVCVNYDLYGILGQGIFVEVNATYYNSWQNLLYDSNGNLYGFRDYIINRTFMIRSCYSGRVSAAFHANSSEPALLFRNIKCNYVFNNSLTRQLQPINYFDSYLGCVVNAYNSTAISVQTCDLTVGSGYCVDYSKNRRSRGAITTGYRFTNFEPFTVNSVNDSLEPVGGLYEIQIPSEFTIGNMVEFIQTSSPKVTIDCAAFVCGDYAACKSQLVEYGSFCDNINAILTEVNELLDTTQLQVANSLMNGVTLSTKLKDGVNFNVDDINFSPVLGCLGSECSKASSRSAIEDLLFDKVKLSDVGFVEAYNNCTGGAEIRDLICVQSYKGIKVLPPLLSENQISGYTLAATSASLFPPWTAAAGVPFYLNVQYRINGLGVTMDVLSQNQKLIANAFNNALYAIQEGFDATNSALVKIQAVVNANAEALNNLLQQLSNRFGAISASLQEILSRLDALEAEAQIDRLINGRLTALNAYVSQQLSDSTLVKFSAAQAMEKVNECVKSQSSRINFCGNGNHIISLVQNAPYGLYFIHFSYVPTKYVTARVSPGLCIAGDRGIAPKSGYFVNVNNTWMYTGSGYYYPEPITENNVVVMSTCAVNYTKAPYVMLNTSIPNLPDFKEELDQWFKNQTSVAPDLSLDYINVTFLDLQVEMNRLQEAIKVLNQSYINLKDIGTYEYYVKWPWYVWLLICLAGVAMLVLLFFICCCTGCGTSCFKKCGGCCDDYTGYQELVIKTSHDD


Tests used:
[1] = target: 真SARS-CoV-2病毒 Victoria/01/2020 的刺突 (SARS-CoV-2); assay: cell-based or functional assay
HCoV-229E刺突 = target: T1, HCoV-229E刺突; assay: FACS on transfected HEK293T cells
HCoV-HKU1刺突 = target: T2, HCoV-HKU1刺突; assay: FACS on transfected HEK293T cells
HCoV-NL63刺突 = target: T3, HCoV-NL63刺突; assay: FACS on transfected HEK293T cells
HCoV-OC43刺突 = target: T4, HCoV-OC43刺突; assay: FACS on transfected HEK293T cells

Row | Binder | NT50, 真病毒中和 (Victoria/01/2020) [1] [nM] | binding result (HCoV-229E刺突) | binding result (HCoV-HKU1刺突) | binding result (HCoV-NL63刺突) | binding result (HCoV-OC43刺突)
1 | S-E6 (antibody, V domains shown, also called S-E6二聚体; 二聚体S-E6) VH: QVTLRESGPGLVKPSETLSLTCAVSGGSLSSVNYYWSWIRQHPGKGLEWIGYIYYSGSTNYNPSLKSRVTMSLDTSKNQFSLKLSSVTAADTAVYYCATPGAIMGALHIWGQGTLVTVSS VL: QAVLTQPSSASSTPGQRVIISCSGSSSNIGSNTVSWYQQVPGAAPKLLIYFDYRRPSGVPDRFSGTRSGTSASLGISGLQSEDEADYYCAAWDDSLSAWVFGRGTKLTVLG | 0.15 | no binding | no binding | no binding | no binding
2 | S-B8 (antibody, V domains shown, also called S-B8二聚体) VH: QVQLVQSGGGLIQPGGSLRLSCAASGFTVSLSHMNWVRQAPGKGLEWVSITYGDGNSDYADSVKGRFTISRDNSKNTLYLQMNSLRAEDTAVYYCAREYYYGMDVWGQGTTVTVSS VL: not shown | 0.88 | no binding | no binding | no binding | no binding
3 | S-D4 (antibody, V domains shown, also called S-D4二聚体; S-D4 IgG4) VH: QVQLQESGGGVVQPGRSLRLSCEVSGFTFSDYGMHWVRQAPGKGLEWVAVIWSEGSTEYYADSVKGRFTISRDNSKDTLYLQMNSLRAEDTAVYYCARPGYPTSTDRSPAAAGARQYYYYGMDVWGQGTTVTVSS VL: NFMLTQPHSVSESPGKTVTISCTRSGGSGAANYVQWYQQRPGSSPTTLIYEDSRRPPGVPDRFSGSVDTSSNSASLTISGLQTEDEADYYCQSYDSSNHVVFGGGTKLTVLG | 2.04 | no binding | no binding | no binding | no binding
